Data as given in publication PMC9482650, “Quantitative fragmentomics allow affinity mapping of interactomes” (Nature Communications, 2022).

T1: APBA1_2, Q02410
T1 sequence (Q02410 742-832, limits assumed, looked up): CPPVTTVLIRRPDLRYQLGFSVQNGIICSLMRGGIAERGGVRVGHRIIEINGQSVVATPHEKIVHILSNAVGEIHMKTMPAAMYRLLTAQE

T2: SHANK1, Q9Y566
T2 sequence (Q9Y566 658-767, limits assumed, looked up): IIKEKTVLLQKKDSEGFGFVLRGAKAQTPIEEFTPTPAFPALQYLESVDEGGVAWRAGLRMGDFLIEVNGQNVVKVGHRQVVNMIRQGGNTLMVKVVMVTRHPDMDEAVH

T3: LIN7A, O14910
T3 sequence (O14910 103-200, limits assumed, looked up): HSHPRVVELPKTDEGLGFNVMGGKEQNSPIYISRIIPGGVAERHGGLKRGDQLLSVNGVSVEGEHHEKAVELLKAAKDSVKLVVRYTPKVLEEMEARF

T4: MPDZ_12, O75970
T4 sequence (O75970 1857-1958, limits assumed, looked up): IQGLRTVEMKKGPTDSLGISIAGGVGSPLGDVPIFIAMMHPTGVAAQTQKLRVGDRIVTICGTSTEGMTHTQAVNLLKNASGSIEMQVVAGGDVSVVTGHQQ

T5: CARD11, Q9BXL7
T5 sequence (Q9BXL7 662-765, limits assumed, looked up): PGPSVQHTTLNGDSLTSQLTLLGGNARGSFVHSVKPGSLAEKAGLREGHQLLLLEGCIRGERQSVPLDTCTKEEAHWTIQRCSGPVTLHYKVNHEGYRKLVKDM

T6: NHERF3_4, Q5T2W1
T6 sequence (Q5T2W1 373-468, limits assumed, looked up): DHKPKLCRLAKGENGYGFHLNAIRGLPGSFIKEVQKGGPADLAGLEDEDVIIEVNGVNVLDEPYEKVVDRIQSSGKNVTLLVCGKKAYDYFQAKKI

T7: LNX2_3, Q8N448
T7 sequence (Q8N448 463-564, limits assumed, looked up): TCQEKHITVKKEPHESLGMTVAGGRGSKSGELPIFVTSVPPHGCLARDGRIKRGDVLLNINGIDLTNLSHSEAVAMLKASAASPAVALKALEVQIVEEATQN

T8: RAPGEF6, Q8TEU7
T8 sequence (Q8TEU7 525-625, limits assumed, looked up): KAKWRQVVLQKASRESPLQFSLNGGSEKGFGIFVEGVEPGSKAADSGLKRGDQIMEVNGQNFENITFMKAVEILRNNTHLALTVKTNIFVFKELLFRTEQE

T9: PDZD2_2, O15018
T9 sequence (O15018 329-429, limits assumed, looked up): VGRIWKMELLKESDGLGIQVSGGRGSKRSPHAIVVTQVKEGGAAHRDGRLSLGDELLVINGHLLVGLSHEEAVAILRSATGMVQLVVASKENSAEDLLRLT


These binders were tested against T1, APBA1_2, Q02410 (assay: holdup assay). Settings: plain residues with an end cap or a label only (N-terminal biotin on a linker: ado-ado).
Set-up: key: below the threshold = too weak to quantify, mostly under pKd 3.1 to 4

Row | pKd | Binder
1 | 3.8 | PDSNPEESSV [SEMA4C, Q9C0C4]

These binders were tested against LNX1_3, Q8TBB1 (assay: holdup assay). Settings: plain residues with an end cap or a label only (N-terminal biotin on a linker: ado-ado).
Sequence of LNX1_3, Q8TBB1 (Q8TBB1 500-596): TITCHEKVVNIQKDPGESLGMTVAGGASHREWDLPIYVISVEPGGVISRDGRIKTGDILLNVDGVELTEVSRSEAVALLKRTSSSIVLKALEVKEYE
Set-up: key: below the threshold = too weak to quantify, mostly under pKd 3.1 to 4

Row | pKd | Binder
2 | below the threshold | PDSNPEESSV [SEMA4C, Q9C0C4]

Each binder was assayed against T2, SHANK1, Q9Y566 (assay: holdup assay). Settings: plain residues with an end cap or a label only (N-terminal biotin on a linker: ado-ado).
Set-up: key: below the threshold = too weak to quantify, mostly under pKd 3.1 to 4

Row | pKd | Binder
3 | below the threshold | PDSNPEESSV [SEMA4C, Q9C0C4]

The binders below were run against Inadl_8, Q8NI35 (assay: holdup assay). Settings: plain residues with an end cap or a label only (N-terminal biotin on a linker: ado-ado).
Sequence of Inadl_8, Q8NI35 (Q8NI35 1425-1530): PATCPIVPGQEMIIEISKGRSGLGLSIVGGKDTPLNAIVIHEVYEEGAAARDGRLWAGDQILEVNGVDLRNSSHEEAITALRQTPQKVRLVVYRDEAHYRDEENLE
Set-up: key: below the threshold = too weak to quantify, mostly under pKd 3.1 to 4

Row | pKd | Binder
4 | 3.66 | PDSNPEESSV [SEMA4C, Q9C0C4]

The binders below were run against DLG5_1, Q8TDM6 (assay: holdup assay). Settings: plain residues with an end cap or a label only (N-terminal biotin on a linker: ado-ado).
Sequence of DLG5_1, Q8TDM6 (Q8TDM6 617-713): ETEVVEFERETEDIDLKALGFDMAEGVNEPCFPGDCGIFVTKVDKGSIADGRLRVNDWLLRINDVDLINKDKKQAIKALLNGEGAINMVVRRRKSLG
Set-up: key: below the threshold = too weak to quantify, mostly under pKd 3.1 to 4

Row | pKd | Binder
5 | below the threshold | PDSNPEESSV [SEMA4C, Q9C0C4]

What follows are binders tested against LIMK2, P53671 (assay: holdup assay). Settings: plain residues with an end cap or a label only (N-terminal biotin on a linker: ado-ado).
Sequence of LIMK2, P53671 (P53671 143-248): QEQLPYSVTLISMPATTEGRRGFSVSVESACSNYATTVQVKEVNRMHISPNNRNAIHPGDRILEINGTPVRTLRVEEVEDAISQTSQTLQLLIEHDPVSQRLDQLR
Set-up: key: below the threshold = too weak to quantify, mostly under pKd 3.1 to 4

Row | pKd | Binder
6 | below the threshold | PDSNPEESSV [SEMA4C, Q9C0C4]

These binders were tested against T3, LIN7A, O14910 (assay: holdup assay). Settings: plain residues with an end cap or a label only (N-terminal biotin on a linker: ado-ado).
Set-up: key: below the threshold = too weak to quantify, mostly under pKd 3.1 to 4

Row | pKd | Binder
7 | below the threshold | PDSNPEESSV [SEMA4C, Q9C0C4]

Each binder was assayed against Inadl_3, Q8NI35 (assay: holdup assay). Settings: plain residues with an end cap or a label only (N-terminal biotin on a linker: ado-ado).
Sequence of Inadl_3, Q8NI35 (Q8NI35 359-469): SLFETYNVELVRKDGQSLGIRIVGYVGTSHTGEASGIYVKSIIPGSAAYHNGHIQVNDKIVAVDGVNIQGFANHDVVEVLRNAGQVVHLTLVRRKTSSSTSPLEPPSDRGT
Set-up: key: below the threshold = too weak to quantify, mostly under pKd 3.1 to 4

Row | pKd | Binder
8 | below the threshold | PDSNPEESSV [SEMA4C, Q9C0C4]

The binders below were run against IL16_4, Q14005 (assay: holdup assay). Settings: plain residues with an end cap or a label only (N-terminal biotin on a linker: ado-ado).
Sequence of IL16_4, Q14005 (Q14005 1229-1329): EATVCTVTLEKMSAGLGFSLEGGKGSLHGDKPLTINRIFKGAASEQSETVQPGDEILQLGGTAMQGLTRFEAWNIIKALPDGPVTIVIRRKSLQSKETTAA
Set-up: key: below the threshold = too weak to quantify, mostly under pKd 3.1 to 4

Row | pKd | Binder
9 | below the threshold | PDSNPEESSV [SEMA4C, Q9C0C4]

These binders were tested against TJP2_1, Q9UDY2 (assay: holdup assay). Settings: plain residues with an end cap or a label only (N-terminal biotin on a linker: ado-ado).
Sequence of TJP2_1, Q9UDY2 (Q9UDY2 24-128): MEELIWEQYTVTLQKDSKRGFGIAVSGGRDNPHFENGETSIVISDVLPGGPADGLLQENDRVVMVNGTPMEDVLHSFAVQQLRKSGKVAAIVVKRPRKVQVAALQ
Set-up: key: below the threshold = too weak to quantify, mostly under pKd 3.1 to 4

Row | pKd | Binder
10 | below the threshold | PDSNPEESSV [SEMA4C, Q9C0C4]

What follows are binders tested against T4, MPDZ_12, O75970 (assay: holdup assay). Settings: plain residues with an end cap or a label only (N-terminal biotin on a linker: ado-ado).
Set-up: key: below the threshold = too weak to quantify, mostly under pKd 3.1 to 4

Row | pKd | Binder
11 | below the threshold | PDSNPEESSV [SEMA4C, Q9C0C4]

The binders below were run against T5, CARD11, Q9BXL7 (assay: holdup assay). Settings: plain residues with an end cap or a label only (N-terminal biotin on a linker: ado-ado).
Set-up: key: below the threshold = too weak to quantify, mostly under pKd 3.1 to 4

Row | pKd | Binder
12 | below the threshold | PDSNPEESSV [SEMA4C, Q9C0C4]

These binders were tested against MAGI2_2, Q86UL8 (assay: holdup assay). Settings: plain residues with an end cap or a label only (N-terminal biotin on a linker: ado-ado).
Sequence of MAGI2_2, Q86UL8 (Q86UL8 410-522): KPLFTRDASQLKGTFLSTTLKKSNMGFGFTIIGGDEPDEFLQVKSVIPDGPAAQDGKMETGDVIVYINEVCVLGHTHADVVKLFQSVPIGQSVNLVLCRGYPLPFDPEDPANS
Set-up: key: below the threshold = too weak to quantify, mostly under pKd 3.1 to 4

Row | pKd | Binder
13 | below the threshold | PDSNPEESSV [SEMA4C, Q9C0C4]

These binders were tested against SCRIB_1, Q14160 (assay: holdup assay). Settings: plain residues with an end cap or a label only (N-terminal biotin on a linker: ado-ado).
Sequence of SCRIB_1, Q14160 (Q14160 718-814): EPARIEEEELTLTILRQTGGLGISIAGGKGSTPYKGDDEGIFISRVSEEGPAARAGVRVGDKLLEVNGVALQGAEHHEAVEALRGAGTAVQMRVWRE
Set-up: key: below the threshold = too weak to quantify, mostly under pKd 3.1 to 4

Row | pKd | Binder
14 | 4.15 | PDSNPEESSV [SEMA4C, Q9C0C4]

What follows are binders tested against Inadl_9, Q8NI35 (assay: holdup assay). Settings: plain residues with an end cap or a label only (N-terminal biotin on a linker: ado-ado).
Sequence of Inadl_9, Q8NI35 (Q8NI35 1530-1615): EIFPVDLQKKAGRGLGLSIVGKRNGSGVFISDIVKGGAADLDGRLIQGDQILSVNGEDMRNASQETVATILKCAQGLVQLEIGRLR
Set-up: key: below the threshold = too weak to quantify, mostly under pKd 3.1 to 4

Row | pKd | Binder
15 | 3.57 | PDSNPEESSV [SEMA4C, Q9C0C4]

Each binder was assayed against GRIP2_6, Q9C0E4 (assay: holdup assay). Settings: plain residues with an end cap or a label only (N-terminal biotin on a linker: ado-ado).
Sequence of GRIP2_6, Q9C0E4 (Q9C0E4 648-740): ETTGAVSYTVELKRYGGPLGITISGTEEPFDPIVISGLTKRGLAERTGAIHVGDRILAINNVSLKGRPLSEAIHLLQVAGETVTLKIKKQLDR
Set-up: key: below the threshold = too weak to quantify, mostly under pKd 3.1 to 4

Row | pKd | Binder
16 | below the threshold | PDSNPEESSV [SEMA4C, Q9C0C4]

Each binder was assayed against DLG4_3, P78352 (assay: holdup assay). Settings: plain residues with an end cap or a label only (N-terminal biotin on a linker: ado-ado).
Sequence of DLG4_3, P78352 (P78352 306-403): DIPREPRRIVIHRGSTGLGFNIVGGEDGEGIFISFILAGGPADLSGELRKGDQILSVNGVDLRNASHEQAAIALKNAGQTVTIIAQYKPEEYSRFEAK
Set-up: key: below the threshold = too weak to quantify, mostly under pKd 3.1 to 4

Row | pKd | Binder
17 | below the threshold | PDSNPEESSV [SEMA4C, Q9C0C4]

What follows are binders tested against T6, NHERF3_4, Q5T2W1 (assay: holdup assay). Settings: plain residues with an end cap or a label only (N-terminal biotin on a linker: ado-ado).
Set-up: key: below the threshold = too weak to quantify, mostly under pKd 3.1 to 4

Row | pKd | Binder
18 | below the threshold | PDSNPEESSV [SEMA4C, Q9C0C4]

The binders below were run against GRIP2_4, Q9C0E4 (assay: holdup assay). Settings: plain residues with an end cap or a label only (N-terminal biotin on a linker: ado-ado).
Sequence of GRIP2_4, Q9C0E4 (Q9C0E4 446-548): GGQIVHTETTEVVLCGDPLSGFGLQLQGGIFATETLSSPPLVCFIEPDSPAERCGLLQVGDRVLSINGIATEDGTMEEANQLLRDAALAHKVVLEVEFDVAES
Set-up: key: below the threshold = too weak to quantify, mostly under pKd 3.1 to 4

Row | pKd | Binder
19 | below the threshold | PDSNPEESSV [SEMA4C, Q9C0C4]

These binders were tested against PARD3_3, Q8TEW0 (assay: holdup assay). Settings: plain residues with an end cap or a label only (N-terminal biotin on a linker: ado-ado).
Sequence of PARD3_3, Q8TEW0 (Q8TEW0 582-685): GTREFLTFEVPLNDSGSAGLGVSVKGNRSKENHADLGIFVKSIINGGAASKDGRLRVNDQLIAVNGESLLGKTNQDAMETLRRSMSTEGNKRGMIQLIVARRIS
Set-up: key: below the threshold = too weak to quantify, mostly under pKd 3.1 to 4

Row | pKd | Binder
20 | below the threshold | PDSNPEESSV [SEMA4C, Q9C0C4]

These binders were tested against GRASP, Q7Z6J2 (assay: holdup assay). Settings: plain residues with an end cap or a label only (N-terminal biotin on a linker: ado-ado).
Sequence of GRASP, Q7Z6J2 (Q7Z6J2 96-193): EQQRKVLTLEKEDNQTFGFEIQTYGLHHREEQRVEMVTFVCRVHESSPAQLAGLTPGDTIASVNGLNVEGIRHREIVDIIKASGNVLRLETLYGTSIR
Set-up: key: below the threshold = too weak to quantify, mostly under pKd 3.1 to 4

Row | pKd | Binder
21 | 3.91 | PDSNPEESSV [SEMA4C, Q9C0C4]

Each binder was assayed against HTRA2, O43464 (assay: holdup assay). Settings: plain residues with an end cap or a label only (N-terminal biotin on a linker: ado-ado).
Sequence of HTRA2, O43464 (O43464 355-458): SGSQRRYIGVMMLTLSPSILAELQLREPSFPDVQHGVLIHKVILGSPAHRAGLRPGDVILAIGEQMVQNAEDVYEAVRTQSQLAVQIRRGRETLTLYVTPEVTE
Set-up: key: below the threshold = too weak to quantify, mostly under pKd 3.1 to 4

Row | pKd | Binder
22 | below the threshold | PDSNPEESSV [SEMA4C, Q9C0C4]

Each binder was assayed against MAGI1_1, Q96QZ7 (assay: holdup assay). Settings: plain residues with an end cap or a label only (N-terminal biotin on a linker: ado-ado).
Sequence of MAGI1_1, Q96QZ7 (Q96QZ7 1-106): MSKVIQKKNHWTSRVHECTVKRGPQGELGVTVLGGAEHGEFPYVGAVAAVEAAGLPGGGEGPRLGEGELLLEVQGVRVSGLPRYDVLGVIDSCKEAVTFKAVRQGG
Set-up: key: below the threshold = too weak to quantify, mostly under pKd 3.1 to 4

Row | pKd | Binder
23 | 3.57 | PDSNPEESSV [SEMA4C, Q9C0C4]

What follows are binders tested against T7, LNX2_3, Q8N448 (assay: holdup assay). Settings: plain residues with an end cap or a label only (N-terminal biotin on a linker: ado-ado).
Set-up: key: below the threshold = too weak to quantify, mostly under pKd 3.1 to 4

Row | pKd | Binder
24 | 3.62 | PDSNPEESSV [SEMA4C, Q9C0C4]

These binders were tested against NHERF2_2, Q15599 (assay: holdup assay). Settings: plain residues with an end cap or a label only (N-terminal biotin on a linker: ado-ado).
Sequence of NHERF2_2, Q15599 (Q15599 142-238): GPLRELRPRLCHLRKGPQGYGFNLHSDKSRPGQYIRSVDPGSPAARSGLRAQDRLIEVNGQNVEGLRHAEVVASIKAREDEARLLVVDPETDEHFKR
Set-up: key: below the threshold = too weak to quantify, mostly under pKd 3.1 to 4

Row | pKd | Binder
25 | 3.88 | PDSNPEESSV [SEMA4C, Q9C0C4]

The binders below were run against T8, RAPGEF6, Q8TEU7 (assay: holdup assay). Settings: plain residues with an end cap or a label only (N-terminal biotin on a linker: ado-ado).
Set-up: key: below the threshold = too weak to quantify, mostly under pKd 3.1 to 4

Row | pKd | Binder
26 | below the threshold | PDSNPEESSV [SEMA4C, Q9C0C4]

What follows are binders tested against T9, PDZD2_2, O15018 (assay: holdup assay). Settings: plain residues with an end cap or a label only (N-terminal biotin on a linker: ado-ado).
Set-up: key: below the threshold = too weak to quantify, mostly under pKd 3.1 to 4

Row | pKd | Binder
27 | 5.35 | PDSNPEESSV [SEMA4C, Q9C0C4]

The binders below were run against NHERF4_1, Q86UT5-2 (assay: holdup assay). Settings: plain residues with an end cap or a label only (N-terminal biotin on a linker: ado-ado).
Sequence of NHERF4_1, Q86UT5-2 (Q86UT5 other isoform, or with tags, fused parts or gaps): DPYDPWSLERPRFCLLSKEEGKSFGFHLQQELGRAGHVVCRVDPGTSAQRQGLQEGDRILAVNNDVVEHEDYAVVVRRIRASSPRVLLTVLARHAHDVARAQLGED
Set-up: key: below the threshold = too weak to quantify, mostly under pKd 3.1 to 4

Row | pKd | Binder
28 | 3.7 | PDSNPEESSV [SEMA4C, Q9C0C4]

These binders were tested against SNX27, Q96L92 (assay: holdup assay). Settings: plain residues with an end cap or a label only (N-terminal biotin on a linker: ado-ado).
Set-up: key: below the threshold = too weak to quantify, mostly under pKd 3.1 to 4

Row | pKd | Binder
29 | 5.45 | PDSNPEESSV [SEMA4C, Q9C0C4]
